Consider three substances from paper PMC8395977.

The target in assay [1] is tpι-CA domain variant ∆1-2 (composed of domains 1 and 2) (Thalassiosira pseudonana). Briefly: DOSY-NMR; 30 to 80 µM protein, 27 mM Tris, 45 mM NaCl, 10% D2O, pH 8, 298 K, 600 MHz; experimental Dt and Rh compared with HYDROPRO values of the models.
The target in assay [2] is iota carbonic anhydrase from Thalassiosira pseudonana (tpι-CA), full-length four-domain recombinant protein (Thalassiosira pseudonana). Description: native MS; ESI-MS under non-denaturing conditions, 500 mM ammonium acetate pH 8, 8 µM protein, Q-ToF (Synapt G1), source 20 °C.
The target is the same in assay [3]. Briefly: SEC-SAXS; SWING beamline (SOLEIL), Agilent Bio SEC-5 500 Å column, 15 °C; molecular mass from SAXS-MoW. (SEC sorts molecules by how far they enter the pores of the column.)
For assay [4] the target is unchanged. Description: cross-linking; 0.01% glutaraldehyde, 20 mM Na2HPO4 pH 8.0, 10 to 15 min at room temperature, then SDS-PAGE and Western blot. On the technique in general: A western blot detects proteins with antibodies after separation by electrophoresis.
For assay [5] the target is unchanged. Briefly: SEC; Superdex Increase S200 10 x 300 at 4 °C, samples loaded at 50 µM to 200 µM; Benzonase treatment where mentioned.
For assay [6], the target named is tpι-CA domain variant ∆1 (composed of domain 1 only) (Thalassiosira pseudonana). Description: DOSY-NMR; 30 to 80 µM protein, 27 mM Tris, 45 mM NaCl, 10% D2O, pH 8, 298 K, 600 MHz; experimental Dt and Rh compared with HYDROPRO values of the models.

In turn, “tpι-CA domain variant ∆1-2 (composed of domains 1 and 2) (domain or fragment)” gave a stoichiometry N in assay [1] of 4.

In the case of “iota carbonic anhydrase from Thalassiosira pseudonana (tpι-CA), full-length four-domain recombinant protein (enzyme)”, the stoichiometry N in assay [2], in assay [3], in assay [4] and in assay [5] was 4 throughout.

Regarding “tpι-CA domain variant ∆1 (composed of domain 1 only) (domain or fragment)”, the stoichiometry N in assay [6] was found to be 2.

Broadly, the stoichiometry N is the number of molecules, sites or subunits per partner or assembly.
